Where a chain is given by its changes, count along the chain named.
Target: T1, MutS (Escherichia coli, UniProt P23909 1-853)
T1 sequence: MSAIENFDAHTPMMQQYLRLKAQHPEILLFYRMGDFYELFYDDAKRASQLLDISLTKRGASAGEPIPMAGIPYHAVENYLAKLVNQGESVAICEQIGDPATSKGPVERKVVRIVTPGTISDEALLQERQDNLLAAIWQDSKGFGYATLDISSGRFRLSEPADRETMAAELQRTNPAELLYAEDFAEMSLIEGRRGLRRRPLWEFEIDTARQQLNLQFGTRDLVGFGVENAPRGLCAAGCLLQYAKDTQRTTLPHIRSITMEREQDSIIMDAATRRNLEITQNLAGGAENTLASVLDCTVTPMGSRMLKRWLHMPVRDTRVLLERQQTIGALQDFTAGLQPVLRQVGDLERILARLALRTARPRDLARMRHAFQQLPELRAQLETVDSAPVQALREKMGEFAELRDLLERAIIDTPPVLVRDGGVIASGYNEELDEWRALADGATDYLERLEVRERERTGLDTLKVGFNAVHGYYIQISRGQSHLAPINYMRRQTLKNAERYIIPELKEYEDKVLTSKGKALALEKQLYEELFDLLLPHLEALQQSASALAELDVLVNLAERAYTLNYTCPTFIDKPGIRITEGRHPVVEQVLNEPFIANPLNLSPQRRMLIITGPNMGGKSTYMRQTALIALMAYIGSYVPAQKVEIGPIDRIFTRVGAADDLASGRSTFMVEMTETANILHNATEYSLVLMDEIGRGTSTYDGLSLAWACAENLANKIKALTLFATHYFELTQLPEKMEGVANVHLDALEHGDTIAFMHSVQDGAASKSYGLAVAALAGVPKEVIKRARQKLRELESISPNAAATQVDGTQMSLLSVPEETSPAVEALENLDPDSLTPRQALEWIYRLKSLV
Experiment: EMSA (Scatchard); 1 mM ADP, 5 mM Mg2+; EMSA: 20 mM HEPES pH 8.0, 125 mM KCl, 1 mM ADP, 5 mM MgCl2, 1 mg/ml BSA, 9% glycerol, 37 C 20 min (gel at 4 C); fluorescence: 25 mM Tris-HCl pH 7.5, 125 mM KCl, 5 mM MgCl2, 1 mM ADP, 20 C
Settings: protein: recombinant, tags: His-tag (Ni-NTA purified), chain copies: 2, label: 5'-32P, blunt

B1: duplex IV (A/Tg) (dsDNA)
DNA 1: CAAGCCTATGCCCTCAGCACCCAAGGTGCC
DNA 2: GGCACCTTGGGTGCTGAGGGCATAGGCTTG
modifications: thymidine glycol (5R,6S) at T7 of strand 2
With B1 as the binder, how does the Kd (strand 1 A24 : strand 2 Tg7) read?
The Kd was 25 ± 3 nM.

B2: duplex III (G/Tg) (dsDNA)
DNA 1: B1 DNA 1 with A24G
DNA 2: B1 DNA 2
modifications: thymidine glycol (5R,6S) at T7 of strand 2
How did the Kd (strand 1 G24 : strand 2 Tg7) turn out when B2 was run?
Its Kd is 44 ± 2.3 nM.

B3: duplex I (G/C) (dsDNA)
DNA 1: B1 DNA 1 with A24G
DNA 2: B1 DNA 2 with T7C
B3 was tested. Which Kd did it give?
Its Kd is 32 ± 3.3 nM.

B4: duplex II (G/T) (dsDNA)
DNA 1: B1 DNA 1 with A24G
DNA 2: B1 DNA 2
For B4, which Kd (G/T mismatch strand 1 G24 : strand 2 T7) is on record?
Its Kd is 7 ± 1.5 nM.

Source: publication PMC4136841, “Is Thymidine Glycol Containing DNA a Substrate of E. coli DNA Mismatch Repair System?”
